Reference: patent US20260008847A1 (ELPISCIENCE SUZHOU BIOPHARMA, published 2026)

Assays:
[1] = target: T1, 6×His-tagged human LILRB2 ECD recombinant protein (human, UniProt Q8N423 22-458, limits assumed); experiment: Octet, 1:1 model
T1 construct: Bought protein; not shown: 6×His-tag

[2] = target: T2, Human LILRB2 stably expressed on EL4 cells (EL4/LILRB2) (human, UniProt Q8N423 22-597); experiment: FACS on EL4/LILRB2 cells
T2 construct: also called EL4-LILRB2 cells; cell membrane human LILRB2
T2 sequence (Q8N423 22-597 limits assumed): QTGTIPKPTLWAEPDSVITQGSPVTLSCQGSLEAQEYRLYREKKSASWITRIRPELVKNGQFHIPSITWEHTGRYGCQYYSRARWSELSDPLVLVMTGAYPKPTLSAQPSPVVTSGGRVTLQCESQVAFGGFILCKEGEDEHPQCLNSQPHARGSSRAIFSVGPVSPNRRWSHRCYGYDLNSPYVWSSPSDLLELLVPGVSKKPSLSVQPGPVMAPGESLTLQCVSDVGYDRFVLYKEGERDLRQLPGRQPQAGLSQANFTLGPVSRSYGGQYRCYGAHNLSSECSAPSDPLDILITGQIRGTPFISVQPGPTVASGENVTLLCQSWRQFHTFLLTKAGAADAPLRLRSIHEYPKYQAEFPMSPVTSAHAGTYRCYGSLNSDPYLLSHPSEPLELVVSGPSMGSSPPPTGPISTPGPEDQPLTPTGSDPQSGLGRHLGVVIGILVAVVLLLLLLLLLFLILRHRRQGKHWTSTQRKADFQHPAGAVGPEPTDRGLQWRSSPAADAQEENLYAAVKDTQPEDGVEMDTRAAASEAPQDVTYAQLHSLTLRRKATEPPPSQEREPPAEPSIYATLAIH

[3] = target: T1, 6×His-tagged human LILRB2 ECD …; experiment: Octet, 1:1 model; column printed as 'kd (1/s)', heads of c4 and c5 are swapped

T1 sequence (Q8N423 22-458 limits assumed): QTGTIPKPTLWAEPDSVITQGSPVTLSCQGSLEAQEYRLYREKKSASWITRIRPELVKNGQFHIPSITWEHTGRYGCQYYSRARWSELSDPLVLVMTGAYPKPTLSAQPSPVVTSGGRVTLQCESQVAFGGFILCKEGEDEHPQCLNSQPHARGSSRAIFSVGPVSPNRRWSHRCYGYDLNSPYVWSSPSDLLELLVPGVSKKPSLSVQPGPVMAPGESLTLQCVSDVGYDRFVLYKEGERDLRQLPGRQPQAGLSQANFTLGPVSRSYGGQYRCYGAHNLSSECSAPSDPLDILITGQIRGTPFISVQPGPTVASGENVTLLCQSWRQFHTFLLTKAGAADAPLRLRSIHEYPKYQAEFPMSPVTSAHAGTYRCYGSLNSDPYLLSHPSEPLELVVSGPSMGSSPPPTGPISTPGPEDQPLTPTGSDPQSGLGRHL

- Kd [1]: 2.4 nM
- EC50 [2]: 0.45 nM
- TOP MFI [2]: 45300 MFI
- kon [3]: 494000 M⁻¹ s⁻¹
B1: 043c (antibody, V domains shown)
VH: QVQLQQSGAELAKPGASVKLSCKASGYTFTSYWMYWVKQRPGQGLEWIGHINPSSGYTKYNQKFKDKATLTADKSSSTAYMQLSSLTYEDSAVYYCARDPNWDNYWGQGTTLTVSS
VL: DIVMTQSHKFMSTSVGDRVSITCKASQDVSIAVAWYQQKPGQSPKLLIYSASYRYTGVPDRFTGSGSGTDFTFTISSVQAEDLAVYYCQQHYSTPYTFGGGTKLEIK
notes: Human IgG4 chimeric antibody with S228P mutation at the Fc region; also called chimeric antibody 043c; parental antibody 043c
